The labels stand for the following.
B1: THRAP3 (protein, UniProt Q9Y2W1 2-955, looked up)
Thyroid hormone …: SKTNKSKSGSRSSRSRSASRSRSRSFSKSRSRSRSLSRSRKRRLSSRSRSRSYSPAHNRERNHPRVYQNRDFRGHNRGYRRPYYFRGRNRGFYPWGQYNRGGYGNYRSNWQNYRQAYSPRRGRSRSRSPKRRSPSPRSRSHSRNSDKSSSDRSRRSSSSRSSSNHSRVESSKRKSAKEKKSSSKDSRPSQAAGDNQGDEAKEQTFSGGTSQDTKASESSKPWPDATYGTGSASRASAVSELSPRERSPALKSPLQSVVVRRRSPRPSPVPKPSPPLSSTSQMGSTLPSGAGYQSGTHQGQFDHGSGSLSPSKKSPVGKSPPSTGSTYGSSQKEESAASGGAAYTKRYLEEQKTENGKDKEQKQTNTDKEKIKEKGSFSDTGLGDGKMKSDSFAPKTDSEKPFRGSQSPKRYKLRDDFEKKMADFHKEEMDDQDKDKAKGRKESEFDDEPKFMSKVIGANKNQEEEKSGKWEGLVYAPPGKEKQRKTEELEEESFPERSKKEDRGKRSEGGHRGFVPEKNFRVTAYKAVQEKSSSPPPRKTSESRDKLGAKGDFPTGKSSFSITREAQVNVRMDSFDEDLARPSGLLAQERKLCRDLVHSNKKEQEFRSIFQHIQSAQSQRSPSELFAQHIVTIVHHVKEHHFGSSGMTLHERFTKYLKRGTEQEAAKNKKSPEIHRRIDISPSTFRKHGLAHDEMKSPREPGYKAEGKYKDDPVDLRLDIERRKKHKERDLKRGKSRESVDSRDSSHSRERSAEKTEKTHKGSKKQKKHRRARDRSRSSSSSSQSSHSYKAEEYTEETEEREESTTGFDKSRLGTKDFVGPSERGGGRARGTFQFRARGRGWGRGNYSGNNNNNSNNDFQKRNREEEWDPEYTPKSKKYYLHDDREGEGSDKWVSRGRGRGAFPRGRGRFMFRKSSTSPKWAHDKFSGEEGEIEDDESGTENREEKDNIQPTTE
B2: WDR83 (protein, UniProt Q9BRX9 1-315, looked up)
WD repeat domain-containing …: MAFPEPKPRPPELPQKRLKTLDCGQGAVRAVRFNVDGNYCLTCGSDKTLKLWNPLRGTLLRTYSGHGYEVLDAAGSFDNSSLCSGGGDKAVVLWDVASGQVVRKFRGHAGKVNTVQFNEEATVILSGSIDSSIRCWDCRSRRPEPVQTLDEARDGVSSVKVSDHEILAGSVDGRVRRYDLRMGQLFSDYVGSPITCTCFSRDGQCTLVSSLDSTLRLLDKDTGELLGEYKGHKNQEYKLDCCLSERDTHVVSCSEDGKVFFWDLVEGALALALPVGSGVVQSLAYHPTEPCLLTAMGGSVQCWREEAYEAEDGAG
B3: ESF1 (protein, UniProt Q9H501 2-851, looked up)
ESF1 homolog: SSKQEIMSDQRFRRVAKDPRFWEMPEKDRKVKIDKRFRAMFHDKKFKLNYAVDKRGRPISHSTTEDLKRFYDLSDSDSNLSGEDSKALSQKKIKKKKTQTKKEIDSKNLVEKKKETKKANHKGSENKTDLDNSIGIKKMKTSCKFKIDSNISPKKDSKEFTQKNKKEKKNIVQHTTDSSLEEKQRTLDSGTSEIVKSPRIECSKTRREMQSVVQLIMTRDSDGYENSTDGEMCDKDALEEDSESVSEIGSDEESENEITSVGRASGDDDGSEDDEEEDEDEEEDEDEDSEDDDKSDSGPDLARGKGNIETSSEDEDDTADLFPEESGFEHAWRELDKDAPRADEITRRLAVCNMDWDRLKAKDLLALFNSFKPKGGVIFSVKIYPSEFGKERMKEEQVQGPVELLSIPEDAPEKDWTSREKLRDYQFKRLKYYYAVVDCDSPETASKIYEDCDGLEFESSCSFIDLRFIPDDITFDDEPKDVASEVNLTAYKPKYFTSAAMGTSTVEITWDETDHERITMLNRKFKKEELLDMDFQAYLASSSEDEEEIEEELQGDDGVNVEEDGKTKKSQKDDEEQIAKYRQLLQVIQEKEKKGKENDMEMEIKWVPGLKESAEEMVKNKLEGKDKLTPWEQFLEKKKEKKRLKRKQKALAEEASEEELPSDVDLNDPYFAEEVKQIGINKKSVKSAKDGTSPEEEIEIERQKAEMALLMMDEDEDSKKHFNYNKIVEHQNLSKKKKKQLMKKKELIEDDFEVNVNDARFQAMYTSHLFNLDPSDPNFKKTKAMEKILEEKARQRERKEQELTQAIKKKESEIEKESQRKSIDPALSMLIKSIKTKTEQFQARKKQKVK
B4: WDR70 (protein, UniProt Q9NW82 1-654, looked up)
WD repeat-containing protein …: MERSGPSEVTGSDASGPDPQLAVTMGFTGFGKKARTFDLEAMFEQTRRTAVERSRKTLEAREKEEEMNREKELRRQNEDIEPTSSRSNVVRDCSKSSSRDTSSSESEQSSDSSDDELIGPPLPPKMVGKPVNFMEEDILGPLPPPLNEEEEEAEEEEEEEEEEENPVHKIPDSHEITLKHGTKTVSALGLDPSGARLVTGGYDYDVKFWDFAGMDASFKAFRSLQPCECHQIKSLQYSNTGDMILVVSGSSQAKVIDRDGFEVMECIKGDQYIVDMANTKGHTAMLHTGSWHPKIKGEFMTCSNDATVRTWEVENPKKQKSVFKPRTMQGKKVIPTTCTYSRDGNLIAAACQNGSIQIWDRNLTVHPKFHYKQAHDSGTDTSCVTFSYDGNVLASRGGDDSLKLWDIRQFNKPLFSASGLPTMFPMTDCCFSPDDKLIVTGTSIQRGCGSGKLVFFERRTFQRVYEIDITDASVVRCLWHPKLNQIMVGTGNGLAKVYYDPNKSQRGAKLCVVKTQRKAKQAETLTQDYIITPHALPMFREPRQRSTRKQLEKDRLDPLKSHKPEPPVAGPGRGGRVGTHGGTLSSYIVKNIALDKTDDSNPREAILRHAKAAEDSPYWVSPAYSKTQPKTMFAQVESDDEEAKNEPEWKKRKI

The first test has as its system BirA*-FLAG-GATAD1 variants in Flp-In-293 cells. Nature of the test: BioID proximity labelling of full-length GATAD1 variants (SILAC). It counts as cell-based, human. The following applies: GATAD1 WT vs S102P, forward experiment (label swap performed, sign inverted against the H/L ratio), log2 of normalized H/L ratio, significant proteins only. The procedure, abridged: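 Tetracycline-inducible Flp-In-293 T-REx lines expressing N-terminal BirA*-FLAG GATAD1 variants (WT, S102P, S102D, S102A) were SILAC-labelled, induced with 1 μg/mL tetracycline for 24 h and given 50 μM biotin overnight. Streptavidin-enriched proteins were trypsin-digested on-bead and analysed by LC-MS/MS. Label-swapped log2 SILAC ratios beyond ±1 defined differential proteins (n = 2).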
For the molecule B1, the Log2_Ratio.H.L.normalized.WT_S102P_forward is 1.318.

With B2, the Log2_Ratio.H.L.normalized.WT_S102P_forward turned out to be 1.042.

Consider B3, for which the Log2_Ratio.H.L.normalized.WT_S102P_forward stood at 1.318.

For the molecule B4, the Log2_Ratio.H.L.normalized.WT_S102P_forward is reported as 1.547.

Staying with this test, now noted: GATAD1 WT vs S102P, forward experiment, normalized H/L ratio, significant proteins only.
For the molecule B1, the Ratio.H.L.normalized.WT_S102P_forward turned out to be 0.4011.

For the molecule B2, the Ratio.H.L.normalized.WT_S102P_forward was 0.4856.

Regarding B3, the Ratio.H.L.normalized.WT_S102P_forward stood at 0.401.

Turning to B4, the Ratio.H.L.normalized.WT_S102P_forward is 0.3422.

Staying with this test, now noted: GATAD1 WT vs S102P, reverse experiment, log2 of normalized H/L ratio, significant proteins only.
In the case of B1, the Log2_Ratio.H.L.normalized.WT_S102P_reverse came out at 1.052.

Regarding B2, the Log2_Ratio.H.L.normalized.WT_S102P_reverse is given as 1.085.

As for B3, the Log2_Ratio.H.L.normalized.WT_S102P_reverse is on record as 1.077.

As to B4, the Log2_Ratio.H.L.normalized.WT_S102P_reverse amounted to 1.108.

Staying with this test, now noted: GATAD1 WT vs S102P, reverse experiment, normalized H/L ratio, significant proteins only.
For the molecule B1, the Ratio.H.L.normalized.WT_S102P_reverse came out at 2.0733.

For the molecule B2, the Ratio.H.L.normalized.WT_S102P_reverse is on record as 2.1217.

Regarding B3, the Ratio.H.L.normalized.WT_S102P_reverse stood at 2.1103.

Regarding B4, the Ratio.H.L.normalized.WT_S102P_reverse is given as 2.1553.

Source of the values: PMC11009412, “Pathogenic mutations of human phosphorylation sites affect protein–protein interactions” (Nature Communications, 2024).
